In patent US20230416313A1 (NAVIGO PROTEINS, published 2023):

Target: T1, recombinant human complement factor H (CFH), isolated from moss (human, UniProt P08603 19-1231)
T1 construct: also called moss-FH; recombinant CFH
Assay: affinity chromatography, ligand on Praesto Epoxy 85, CFH supernatant bound in PBS pH 7.3, eluted at pH 3.5
Protocol: Coupling parameter. Proteins were purified to homogeneity and coupled to resin for AIC experiments. […] Variants were successfully coupled to epoxy-activated Praesto 85 resin.
AIC experiments. Capturing and Elution. For initial column performance tests, resins were packed into superformance 50-5 column housing. Phosphate buffered saline pH 7.3 (PBS) was used to equilibrate the column, followed by applying of 10 mL of recombinant CFH expression supernatant (titer: 0.47 mg/mL) at 6 min residence time. Resin was then washed with PBS for 15 column volumes. Elution was performed at pH 3.5 using 100 mM Citric acid buffer followed by stripping of residual bound CFH at pH 2.0. Elution at pH 3.5 and pH 2.0 was calculated by UV 280 nm absorption.

T1 sequence (P08603 19-1231 limits assumed): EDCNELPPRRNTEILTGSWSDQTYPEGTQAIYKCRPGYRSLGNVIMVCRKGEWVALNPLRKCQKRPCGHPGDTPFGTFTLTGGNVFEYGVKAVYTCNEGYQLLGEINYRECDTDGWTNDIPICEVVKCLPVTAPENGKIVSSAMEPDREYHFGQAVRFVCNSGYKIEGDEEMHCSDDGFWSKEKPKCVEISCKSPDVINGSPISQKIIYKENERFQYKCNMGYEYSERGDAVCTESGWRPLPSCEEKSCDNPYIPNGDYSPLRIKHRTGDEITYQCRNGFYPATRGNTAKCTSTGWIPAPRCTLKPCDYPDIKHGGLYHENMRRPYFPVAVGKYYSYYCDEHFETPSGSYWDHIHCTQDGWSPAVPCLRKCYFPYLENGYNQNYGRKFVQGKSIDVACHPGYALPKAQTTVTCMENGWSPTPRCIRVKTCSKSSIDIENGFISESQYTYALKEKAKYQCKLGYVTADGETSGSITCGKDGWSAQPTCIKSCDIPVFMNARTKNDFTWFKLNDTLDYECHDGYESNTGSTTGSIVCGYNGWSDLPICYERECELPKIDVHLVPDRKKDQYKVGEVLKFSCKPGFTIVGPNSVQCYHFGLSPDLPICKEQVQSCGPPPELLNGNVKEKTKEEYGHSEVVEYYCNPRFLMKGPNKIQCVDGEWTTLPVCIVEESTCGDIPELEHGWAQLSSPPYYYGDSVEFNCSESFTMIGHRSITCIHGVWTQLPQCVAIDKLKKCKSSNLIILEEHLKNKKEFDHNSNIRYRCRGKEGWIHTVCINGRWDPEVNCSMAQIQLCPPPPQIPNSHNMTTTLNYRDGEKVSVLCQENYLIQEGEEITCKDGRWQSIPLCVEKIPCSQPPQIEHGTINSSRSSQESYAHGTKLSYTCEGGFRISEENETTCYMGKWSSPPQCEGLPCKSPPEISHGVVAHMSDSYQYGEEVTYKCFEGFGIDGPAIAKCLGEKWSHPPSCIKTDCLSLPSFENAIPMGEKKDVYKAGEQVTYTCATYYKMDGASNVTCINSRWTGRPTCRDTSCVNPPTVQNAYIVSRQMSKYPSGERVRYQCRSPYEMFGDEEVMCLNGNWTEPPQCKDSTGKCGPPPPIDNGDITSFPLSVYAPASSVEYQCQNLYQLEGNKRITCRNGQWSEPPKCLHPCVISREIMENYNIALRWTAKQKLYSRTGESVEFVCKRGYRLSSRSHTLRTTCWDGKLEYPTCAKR

B1: CFH binding protein of SEQ ID NO: 5 (CID 209447) (designed binder)
chain: NAAEADDAQVSAAMEIIMLPNLTLEQAHSFIESLYRDPSVSKEVLGEAQKLNDSQAPK
notes: Coupled to Praesto Epoxy 85 resin
Q: For B1, which “Step Yield of CFH at pH 3.5 (percentage elution)” value is on record?
A: The value was 91%.

B2: CFH binding protein of SEQ ID NO: 20 (CID 209864) (designed binder)
chain: IAAKFDEAQQAAFYEILHLPNLTELQRNHFIQTLRDDPSVSLWVLGLAQLLNDSQAPKIAAKFDEAQQHAFYTILHLENLTEEQRNAFIQSLRDDPSVSLEVLGEAIKLNISQAPK
notes: as for B1
Q: B2 was tested. Which “Step Yield of CFH at pH 3.5 (percentage elution)” value did it give?
A: The value was 96%.
